Measurements taken from the supplement of paper PMC10567573.

B1: STK38L (parent)
chain: NWKETLVFPPEVPISEKAKDLILR
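Note: lentivirally expressed fusions sorted by FACS into six bins by GFP to DsRed ratio, PSI derived from sequencing read proportions per bin multiplied by bin number.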

Variants of: B1
Test: protein stability index of a GFP-peptide fusion (GPS, HEK-293T) (PSI 1-6); higher = more stable
Conditions: c terminus: a fixed tail appended
NWKETLVFPPEVNISEKAKDLILR [P13N] showed a protein stability index of 3.27.
Variant NWKETLVFPPEVCISEKAKDLILR [P13C] has a protein stability index of 2.37.
In the case of NWKETLVFPPEVDISEKAKDLILR [P13D], the protein stability index is reported as 3.4.
NWKETLVFPPEVHISEKAKDLILR [P13H] gave a protein stability index of 2.9.
NWKETLVFPPEVLISEKAKDLILR [P13L] showed a protein stability index of 2.42.
NWKETLVFPPEVFISEKAKDLILR [P13F] showed a protein stability index of 2.35.
In the case of NWKETLVFPPEVEISEKAKDLILR [P13E], the protein stability index is reported as 3.1.
NWKETLVFPPEVMISEKAKDLILR [P13M] showed a protein stability index of 2.36.
In the case of NWKETLVFPPEVKISEKAKDLILR [P13K], the protein stability index is reported as 2.46.
In the case of NWKETLVFPPEVRISEKAKDLILR [P13R], the protein stability index is reported as 2.57.
With NWKETLVFPPEVGISEKAKDLILR [P13G] the protein stability index was 3.1.
In the case of NWKETLVFPIEVPISEKAKDLILR [P10I], the protein stability index is reported as 2.14.
Variant NWKETLVFPCEVPISEKAKDLILR [P10C] has a protein stability index of 2.81.
For NWKETLVFPMEVPISEKAKDLILR [P10M], the protein stability index was 2.8.
In the case of NWKETLVFPWEVPISEKAKDLILR [P10W], the protein stability index is reported as 1.78.
In the case of NWKETLVFPDEVPISEKAKDLILR [P10D], the protein stability index is reported as 3.43.
NWKETLVFPAEVPISEKAKDLILR [P10A] showed a protein stability index of 2.65.
With NWKETLVFPFEVPISEKAKDLILR [P10F] the protein stability index was 1.8.
Variant NWKETLVFPHEVPISEKAKDLILR [P10H] has a protein stability index of 3.03.
NWKETLVFPVEVPISEKAKDLILR [P10V] gave a protein stability index of 3.02.
NWKETLVFPSEVPISEKAKDLILR [P10S] showed a protein stability index of 2.6.
For NWKETLVFPKEVPISEKAKDLILR [P10K], the protein stability index was 3.03.
NWKETLVFPYEVPISEKAKDLILR [P10Y] showed a protein stability index of 2.48.
Work on NWKETLVFPTEVPISEKAKDLILR [P10T] yielded a protein stability index of 3.35.
NWKETLVFPLEVPISEKAKDLILR [P10L] showed a protein stability index of 2.81.
Work on NWKETLVFPQEVPISEKAKDLILR [P10Q] yielded a protein stability index of 3.3.
Variant NWKETLVFPGEVPISEKAKDLILR [P10G] has a protein stability index of 2.49.
With NWKETLVFVPEVPISEKAKDLILR [P9V] the protein stability index was 2.52.
In the case of NWKETLVFKPEVPISEKAKDLILR [P9K], the protein stability index is reported as 2.68.
Variant NWKETLVFRPEVPISEKAKDLILR [P9R] has a protein stability index of 2.93.
For NWKETLVFGPEVPISEKAKDLILR [P9G], the protein stability index was 1.93.
In the case of NWKETLVFNPEVPISEKAKDLILR [P9N], the protein stability index is reported as 2.78.
NWKETLVFSPEVPISEKAKDLILR [P9S] showed a protein stability index of 3.06.
In the case of NWKETLVFFPEVPISEKAKDLILR [P9F], the protein stability index is reported as 2.34.
In the case of NWKETLVFWPEVPISEKAKDLILR [P9W], the protein stability index is reported as 1.56.
NWKETLVFTPEVPISEKAKDLILR [P9T] showed a protein stability index of 2.9.
For NWKETLVFYPEVPISEKAKDLILR [P9Y], the protein stability index was 1.96.
NWKETLVFMPEVPISEKAKDLILR [P9M] gave a protein stability index of 2.05.
NWKETLVFHPEVPISEKAKDLILR [P9H] gave a protein stability index of 2.57.
NWKETLVFAPEVPISEKAKDLILR [P9A] showed a protein stability index of 2.69.
Work on NWKETLVFQPEVPISEKAKDLILR [P9Q] yielded a protein stability index of 4.18.
Work on NWKETLVFCPEVPISEKAKDLILR [P9C] yielded a protein stability index of 2.27.
With NWKETLVFDPEVPISEKAKDLILR [P9D] the protein stability index was 2.77.
Work on NWKETLVFIPEVPISEKAKDLILR [P9I] yielded a protein stability index of 2.75.
In the case of NWKETLVFLPEVPISEKAKDLILR [P9L], the protein stability index is reported as 2.32.
For NWKETLVFEPEVPISEKAKDLILR [P9E], the protein stability index was 2.75.
In the case of NWKETLVFPPEIPISEKAKDLILR [V12I], the protein stability index is reported as 3.52.
For NWKETLVFPPERPISEKAKDLILR [V12R], the protein stability index was 3.92.
In the case of NWKETLVFPPETPISEKAKDLILR [V12T], the protein stability index is reported as 2.97.
NWKETLVFPPEHPISEKAKDLILR [V12H] gave a protein stability index of 2.72.
For NWKETLVFPPEQPISEKAKDLILR [V12Q], the protein stability index was 2.89.
In the case of NWKETLVFPPELPISEKAKDLILR [V12L], the protein stability index is reported as 2.67.
For NWKETLVFPPESPISEKAKDLILR [V12S], the protein stability index was 3.86.
NWKETLVFPPEGPISEKAKDLILR [V12G] gave a protein stability index of 2.92.
In the case of NWKETLVFPPEMPISEKAKDLILR [V12M], the protein stability index is reported as 3.15.
For NWKETLVFPPEWPISEKAKDLILR [V12W], the protein stability index was 3.95.
NWKETLVFPPEKPISEKAKDLILR [V12K] showed a protein stability index of 3.76.
Work on NWKETLVFPPEDPISEKAKDLILR [V12D] yielded a protein stability index of 3.55.
Variant NWKETLVFPPENPISEKAKDLILR [V12N] has a protein stability index of 3.26.
Work on NWKETLVFPPEEPISEKAKDLILR [V12E] yielded a protein stability index of 3.72.
In the case of NWKETLVFPPEPPISEKAKDLILR [V12P], the protein stability index is reported as 3.48.
Variant NWKETLVFPPECPISEKAKDLILR [V12C] has a protein stability index of 2.73.
For NWKETLVFPPEFPISEKAKDLILR [V12F], the protein stability index was 3.05.
NWKETLVFPPEYPISEKAKDLILR [V12Y] gave a protein stability index of 2.62.
NWKETLVFPPSVPISEKAKDLILR [E11S] showed a protein stability index of 2.3.
Variant NWKETLVFPPWVPISEKAKDLILR [E11W] has a protein stability index of 2.63.
NWKETLVFPPQVPISEKAKDLILR [E11Q] showed a protein stability index of 3.36.
NWKETLVFPPTVPISEKAKDLILR [E11T] gave a protein stability index of 2.68.
NWKETLVFPPHVPISEKAKDLILR [E11H] showed a protein stability index of 2.81.
In the case of NWKETLVFPPGVPISEKAKDLILR [E11G], the protein stability index is reported as 2.65.
NWKETLVFPPNVPISEKAKDLILR [E11N] showed a protein stability index of 2.69.
NWKETLVFPPLVPISEKAKDLILR [E11L] showed a protein stability index of 3.58.
NWKETLVFPPCVPISEKAKDLILR [E11C] showed a protein stability index of 2.89.
In the case of NWKETLVFPPRVPISEKAKDLILR [E11R], the protein stability index is reported as 2.87.
NWKETLVFPPMVPISEKAKDLILR [E11M] showed a protein stability index of 2.39.
Work on NWKETLVFPPYVPISEKAKDLILR [E11Y] yielded a protein stability index of 2.21.
Variant NWKETLVFPPAVPISEKAKDLILR [E11A] has a protein stability index of 2.87.
NWKETLVFPPFVPISEKAKDLILR [E11F] gave a protein stability index of 1.92.
NWKETLVFPPVVPISEKAKDLILR [E11V] gave a protein stability index of 3.03.
Variant NWKETLVFPPIVPISEKAKDLILR [E11I] has a protein stability index of 2.52.
In the case of NWKETLVFPPDVPISEKAKDLILR [E11D], the protein stability index is reported as 3.15.
With NWIETLVFPPEVPISEKAKDLILR [K3I] the protein stability index was 2.42.
For NWGETLVFPPEVPISEKAKDLILR [K3G], the protein stability index was 3.17.
NWVETLVFPPEVPISEKAKDLILR [K3V] gave a protein stability index of 2.53.
With NWFETLVFPPEVPISEKAKDLILR [K3F] the protein stability index was 1.64.
In the case of NWSETLVFPPEVPISEKAKDLILR [K3S], the protein stability index is reported as 3.17.
For NWLETLVFPPEVPISEKAKDLILR [K3L], the protein stability index was 2.02.
Variant NWTETLVFPPEVPISEKAKDLILR [K3T] has a protein stability index of 3.23.
Variant NWQETLVFPPEVPISEKAKDLILR [K3Q] has a protein stability index of 3.77.
For NWMETLVFPPEVPISEKAKDLILR [K3M], the protein stability index was 2.42.
Work on NWPETLVFPPEVPISEKAKDLILR [K3P] yielded a protein stability index of 3.71.
NWEETLVFPPEVPISEKAKDLILR [K3E] showed a protein stability index of 3.41.
For NWNETLVFPPEVPISEKAKDLILR [K3N], the protein stability index was 3.46.
For NWDETLVFPPEVPISEKAKDLILR [K3D], the protein stability index was 3.69.
